The target in experiment [1] is T1, マウスMMP9 (mouse, UniProt P41245 20-730, limits assumed). Nature of the experiment: cell-based or functional assay.
The target of experiment [2] is T1, マウスMMP9. The experiment in a line: ELISA.
Experiment [3] has as its target T2, ヒトMMP9 (human, UniProt P14780 20-707, limits assumed).
T2 construct: also called human MMP9; ゼラチナーゼ−B
Nature of the experiment: SPR.

Experiment [4] concerns the target T2, ヒトMMP9. Nature of the experiment: cell-based or functional assay.
Experiment [5] addresses T2, ヒトMMP9. The experiment in a line: ELISA.
The target of another experiment is T3, ラットMMP9 (rat, UniProt P50282 20-708, limits assumed).
T3 construct: also called rat MMP9; 組換えラットMMP9
T3 sequence (P50282 20-708 limits assumed): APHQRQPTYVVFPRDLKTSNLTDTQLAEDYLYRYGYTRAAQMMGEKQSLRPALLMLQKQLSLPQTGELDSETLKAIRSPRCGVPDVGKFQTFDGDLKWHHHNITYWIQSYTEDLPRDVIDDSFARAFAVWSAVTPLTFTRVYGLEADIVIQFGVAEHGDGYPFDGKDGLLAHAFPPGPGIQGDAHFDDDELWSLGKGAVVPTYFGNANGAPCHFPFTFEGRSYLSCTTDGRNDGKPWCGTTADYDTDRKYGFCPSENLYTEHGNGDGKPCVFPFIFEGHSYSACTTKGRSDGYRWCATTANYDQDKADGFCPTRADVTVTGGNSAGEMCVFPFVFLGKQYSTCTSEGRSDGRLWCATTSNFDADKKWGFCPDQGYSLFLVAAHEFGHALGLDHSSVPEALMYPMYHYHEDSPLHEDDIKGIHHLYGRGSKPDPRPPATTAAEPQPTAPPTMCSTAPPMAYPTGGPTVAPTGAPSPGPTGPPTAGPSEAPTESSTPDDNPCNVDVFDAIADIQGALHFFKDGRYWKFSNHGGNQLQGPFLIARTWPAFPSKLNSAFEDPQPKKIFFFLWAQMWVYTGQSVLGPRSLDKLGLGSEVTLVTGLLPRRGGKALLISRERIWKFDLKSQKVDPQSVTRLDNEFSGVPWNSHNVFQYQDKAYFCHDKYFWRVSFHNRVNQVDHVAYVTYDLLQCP
The experiment in a line: ELISA.

Another experiment has as its target T4, カニクイザルMMP9 (cynomolgus monkey, UniProt A0A2K5UU71 20-706).
T4 construct: also called cynomolgus MMP9; 組換えカニクイザルMMP9
T4 sequence (A0A2K5UU71 entry or part of it): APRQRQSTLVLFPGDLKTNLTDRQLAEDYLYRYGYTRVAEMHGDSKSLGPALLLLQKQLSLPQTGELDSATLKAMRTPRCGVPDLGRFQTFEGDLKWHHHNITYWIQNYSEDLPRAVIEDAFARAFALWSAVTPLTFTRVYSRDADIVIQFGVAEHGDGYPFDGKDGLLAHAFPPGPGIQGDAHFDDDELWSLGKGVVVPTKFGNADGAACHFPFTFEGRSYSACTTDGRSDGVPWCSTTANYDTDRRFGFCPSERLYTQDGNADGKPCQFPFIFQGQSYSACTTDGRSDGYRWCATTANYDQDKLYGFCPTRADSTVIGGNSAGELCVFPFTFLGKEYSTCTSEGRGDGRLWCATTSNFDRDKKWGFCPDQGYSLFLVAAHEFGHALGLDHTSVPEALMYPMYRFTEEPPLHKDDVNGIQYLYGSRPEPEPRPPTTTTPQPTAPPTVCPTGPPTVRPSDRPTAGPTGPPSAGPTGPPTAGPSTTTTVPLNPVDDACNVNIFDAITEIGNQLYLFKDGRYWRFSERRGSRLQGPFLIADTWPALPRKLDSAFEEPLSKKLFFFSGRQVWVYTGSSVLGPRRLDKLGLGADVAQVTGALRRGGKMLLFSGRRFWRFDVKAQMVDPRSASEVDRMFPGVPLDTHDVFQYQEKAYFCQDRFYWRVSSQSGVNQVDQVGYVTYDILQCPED
Nature of the experiment: ELISA.

Experiment [6] has as its target T2, ヒトMMP9. The experiment in a line: direct binding assay and SPR.
Experiment [7] deals with T1, マウスMMP9. The experiment in a line: binding test (Table 2, not shown).

The results in this text go back to patent JP2016106147A (dated 2016).

Values joined by “and” are separate entries in the source; they are usually repeats but may differ in a detail not shown here. Equal values may be shown once.

T1 sequence (P41245 20-730 limits assumed): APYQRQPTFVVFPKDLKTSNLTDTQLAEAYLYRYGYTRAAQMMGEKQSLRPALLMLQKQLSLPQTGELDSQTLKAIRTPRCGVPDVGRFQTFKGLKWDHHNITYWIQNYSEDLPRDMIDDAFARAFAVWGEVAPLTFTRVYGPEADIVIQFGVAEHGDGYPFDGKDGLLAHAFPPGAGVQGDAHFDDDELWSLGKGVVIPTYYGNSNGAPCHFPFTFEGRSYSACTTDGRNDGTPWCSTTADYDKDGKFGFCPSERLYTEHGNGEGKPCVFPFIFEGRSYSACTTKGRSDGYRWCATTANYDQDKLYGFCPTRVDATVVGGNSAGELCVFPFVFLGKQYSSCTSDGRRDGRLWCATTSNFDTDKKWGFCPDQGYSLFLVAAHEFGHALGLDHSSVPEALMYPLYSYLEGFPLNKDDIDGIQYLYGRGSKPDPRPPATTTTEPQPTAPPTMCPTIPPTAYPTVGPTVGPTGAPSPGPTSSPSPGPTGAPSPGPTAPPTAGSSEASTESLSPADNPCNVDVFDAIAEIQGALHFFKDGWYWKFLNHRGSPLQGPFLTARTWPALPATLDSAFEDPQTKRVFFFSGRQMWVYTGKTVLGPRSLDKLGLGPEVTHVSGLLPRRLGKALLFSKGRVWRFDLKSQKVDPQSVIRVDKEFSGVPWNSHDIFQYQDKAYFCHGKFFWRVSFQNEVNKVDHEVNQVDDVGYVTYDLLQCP
T2 sequence (P14780 20-707 Q279R/R574P limits assumed): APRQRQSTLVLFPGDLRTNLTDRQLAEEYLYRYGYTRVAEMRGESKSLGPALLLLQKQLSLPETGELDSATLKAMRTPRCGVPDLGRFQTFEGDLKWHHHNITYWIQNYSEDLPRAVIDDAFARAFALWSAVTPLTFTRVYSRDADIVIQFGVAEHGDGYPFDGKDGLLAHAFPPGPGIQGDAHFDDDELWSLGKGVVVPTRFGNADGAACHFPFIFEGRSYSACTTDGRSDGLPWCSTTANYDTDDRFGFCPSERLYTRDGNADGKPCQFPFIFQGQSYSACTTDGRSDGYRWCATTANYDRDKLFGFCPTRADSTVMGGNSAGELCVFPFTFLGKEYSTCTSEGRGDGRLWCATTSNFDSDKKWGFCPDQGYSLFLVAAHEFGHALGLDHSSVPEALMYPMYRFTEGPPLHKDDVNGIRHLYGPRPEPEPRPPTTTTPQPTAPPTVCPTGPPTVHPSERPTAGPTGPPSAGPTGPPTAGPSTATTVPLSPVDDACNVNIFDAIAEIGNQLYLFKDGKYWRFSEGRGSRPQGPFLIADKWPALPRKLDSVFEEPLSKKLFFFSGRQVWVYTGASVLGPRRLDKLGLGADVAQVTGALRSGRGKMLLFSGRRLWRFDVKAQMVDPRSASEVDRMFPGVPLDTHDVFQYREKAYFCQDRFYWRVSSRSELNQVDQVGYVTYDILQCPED

B1: マウス抗体AB0046 (antibody, V domains shown)
VH: QVQLQQPGSVLVRPGASVKLSCTASGYTFTSYWMNWVKQRPGQGLEWIGEIYPISGRTNYNEKFKVKATLTVDTSSSTAYMDLNSLTSEDSAVYYCARSRANWDDYWGQGTTLTVSS
VL: DIQMTQTTSSLSASLGDRVTISCSASQGISNYLNWYQQKPDGTFKLLIYYTSILHSGVPSRFSGSGSGTDYSLTISNLEPEDIATYYCQQYGWLPRTFGGGTKLEIKR
notes: Mouse IgG1/kappa anti-mouse MMP9 antibody; also called AB0046; AB0046抗体
With B1, the “IC50, MMP9-mediated cleavage of fluorogenic peptide substrate Mca-PLGL-Dpa-AR-NH2” value (from here on “IC50, MMP9-mediated cleavage”) with マウスMMP9 [1] was 0.352 nM. In the experiment with マウスMMP9 [2], this molecule registered a Kd of 0.218 nM.

B2: ヒト化変異体抗MMP9抗体AB0045(ヒト化、改変IgG4(S241P)) (antibody, V domains shown)
VH: QVQLQESGPGLVKPSETLSLTCTVSGFSLLSYGVHWVRQPPGKGLEWLGVIWTGGTTNYNSALMSRFTISKDDSKNTVYLKMNSLKTEDTAIYYCARYYYGMDYWGQGTLVTVSS
VL: DIQMTQSPSSLSASVGDRVTITCKASQDVRNTVAWYQQKPGKAPKLLIYSSSYRNTGVPDRFSGSGSGTDFTLTISSLQAEDVAVYYCQQHYITPYTFGGGTKVEIKR
notes: also called AB0045; AB0045抗体
Regarding B2, the Kd was 0.0088 nM with ヒトMMP9 [3]; < 0.4 nM and 0.168 nM with ヒトMMP9 [5]; less than 0.4 nM with ラットMMP9; less than 0.4 nM with カニクイザルMMP9; roughly 0.001 nM with ヒトMMP9 [6]. In the experiment with ヒトMMP9 [4], the “IC50, MMP9-mediated cleavage” value is 0.691 nM.

B3: マウスモノクローナル抗MMP9抗体(AB0041) (antibody, mouse IgG2b, V domains shown)
VH: QVQLKESGPGLVAPSQSLSITCTVSGFSLLSYGVHWVRQPPGKGLEWLGVIWTGGTTNYNSALMSRLSISKDDSKSQVFLKMNSLQTDDTAIYYCARYYYGMDYWGQGTSVTVSS
VL: DIVMTQSHKFMSTSVGDRVSITCKASQDVRNTVAWYQQKTGQSPKLLIYSSSYRNTGVPDRFTGSGSGTDFTFTISSVQAEDLAVYFCQQHYITPYTFGGGTKLEIK
notes: also called AB0041; AB0041抗体
B3: the Kd with ヒトMMP9 [3] was 0.0004 nM; in the experiment with ラットMMP9 it was less than 0.4 nM; in the experiment with カニクイザルMMP9, less than 0.4 nM. Also, the “IC50, MMP9-mediated cleavage” value with ヒトMMP9 [4] is 0.569 nM. Moreover, the binding result with マウスMMP9 [7] is recorded as “no binding”.
